According to publication PMC6241527 (Science (New York, N.Y.), 2018):

What was measured:
[1] = target: T1, H1 hemagglutinin (A/Brisbane/59/07) (Influenza A virus …); assay: cell-based or functional assay
[2] = target: T1, H1 hemagglutinin (A/Brisbane/59/07)
[3] = target: T2, H1 hemagglutinin (A/Solomon Islands/3/06) (influenza A virus (A/Solomon …)); assay: crystal structure
T2 chain 1: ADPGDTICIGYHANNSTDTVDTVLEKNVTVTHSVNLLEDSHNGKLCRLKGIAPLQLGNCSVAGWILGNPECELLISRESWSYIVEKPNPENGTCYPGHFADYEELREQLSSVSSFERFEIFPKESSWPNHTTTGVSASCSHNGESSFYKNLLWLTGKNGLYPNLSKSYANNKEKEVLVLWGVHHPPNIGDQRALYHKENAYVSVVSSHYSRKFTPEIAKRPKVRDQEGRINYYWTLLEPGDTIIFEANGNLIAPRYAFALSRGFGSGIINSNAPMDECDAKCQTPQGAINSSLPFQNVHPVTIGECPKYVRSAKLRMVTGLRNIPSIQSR
T2 chain 2: not shown

[4] = target: T3, influenza B hemagglutinin (B/Brisbane/60/08) (influenza B virus (B/Brisbane/60/08), N-linked glycans at N301 and N330 (HA1)); assay: crystal structure
T3 chain 1: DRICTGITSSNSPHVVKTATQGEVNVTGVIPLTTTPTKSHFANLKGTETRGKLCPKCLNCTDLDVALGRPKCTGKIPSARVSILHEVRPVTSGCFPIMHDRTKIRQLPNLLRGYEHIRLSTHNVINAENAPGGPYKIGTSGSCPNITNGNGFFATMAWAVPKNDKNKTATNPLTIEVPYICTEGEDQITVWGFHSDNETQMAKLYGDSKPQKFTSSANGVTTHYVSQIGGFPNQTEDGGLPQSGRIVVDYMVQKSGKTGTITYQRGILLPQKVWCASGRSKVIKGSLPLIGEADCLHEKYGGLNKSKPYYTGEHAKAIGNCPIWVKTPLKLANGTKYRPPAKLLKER
T3 chain 2: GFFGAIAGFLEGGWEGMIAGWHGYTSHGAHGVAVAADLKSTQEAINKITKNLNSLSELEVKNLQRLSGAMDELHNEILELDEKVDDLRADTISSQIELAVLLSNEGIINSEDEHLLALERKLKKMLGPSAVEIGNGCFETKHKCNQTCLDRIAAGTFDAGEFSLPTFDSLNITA

B1: single-domain antibody SD36 (VHH)
VHH: EVQLVESGGGLVQAGGSLKLSCAASGRTYAMGWFRQAPGKEREFVAHINALGTRTYYSDSVKGRFTISRDNAKNTEYLEMNNLKPEDTAVYYCTAQGQWRAAPVAVAAEYEFWGQGTQVTVSS
B1 was tested, and the “in vitro neutralisation of the corresponding virus (A/Brisbane/59/07), IC50” value [1] was > 1000 nM and the Kd [2] was 290 nM.

B2: single-domain antibody SD38 (VHH)
VHH: EVQLVESGGGLVQPGGSLRLSCAVSISIFDIYAMDWYRQAPGKQRDLVATSFRDGSTNYADSVKGRFTISRDNAKNTLYLQMNSLKPEDTAVYLCHVSLYRDPLGVAGGMGVYWGKGALVTVSS
B2 was tested, and the “stoichiometry N” value [3] was 3 sdAbs per HA trimer.

B3: single-domain antibody SD83 (VHH)
VHH: EVQLVESGGGLVQPGGSLRLSCAATGFTLENKAIGWFRQTPGSEREGVLCISKSGSWTYYTDSMRGRFTISRDNAENTVYLQMDSLKPEDTAVYYCATTTAGGGLCWDGTTFSRLASSWGQGTQVTVSS
In the case of B3, the “stoichiometry N” value [4] is reported as 3 sdAbs per HA trimer.
